From the supplement of paper PMC7877785
± gives the uncertainty stated by the source.

Assay: self-splicing fitness, log relative to wild type (ln ratio); higher = more splicing; Tetrahymena group I intron in knt gene, E. coli kanamycin selection, DiMSum; sequences stand for … in CUCUCU…GGAGGGAAAAGUUAUCAGGCAUGCACCUGGUAGCUAGUCUUUAAACCAAUAGAUUGCAUCGGUUUAAAAGGCAAGACCGUCAAAUUGCGGGAAAGGGGUCAACAGCCGUUCAGUACCAAGUCUCAGGGGAAACUUUGAGAUGGCCUUGCAAAGGGUAUGGUAAUAAGCUGACGGACAUGGUCCUAACCACGCAGCCAAGUCCUAAGUCAACAGAUCUUCUGUUGAUAUGGAUGCAGUUCACAGACUAAAUGUCGGUCGGGGAAGAUGUAUUCUUCUCAUAAGAUAUAGUCGGACCUCUCCUUAAUGGGAGCUAGCGGAUGAAGUGAUGCAACACUGGAGCCGCUGGGAACUAAUUUGUAUGCGAAAGUAUAUUGAUUAGUUUUGGAGUACUCGUGGUCG
Outline: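 Colonies from six replicate transformations of E. coli BL21(DE3) were pooled and amplicon-sequenced on an Illumina HiSeq 2500. The library placed an intron with all eight P1ex-region nucleotides randomised inside the knt kanamycin-resistance gene on pET-22b(+), and cells grew overnight at 37°C or 30°C on LB agar with or without 25 μg/mL kanamycin (plus 100 μg/mL carbenicillin, 50 μM IPTG, 0.2% rhamnose). Fitness is the DiMSum error-weighted combination of wild-type-normalised replicate fold changes, kanamycin versus none.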

| Sequence | self-splicing fitness (ln) (30 °C) | self-splicing fitness (ln) (37 °C) |
| --- | --- | --- |
| UCAAAGCAAUAUUACGAGGG | -2.11 ± 0.12 | -1.03 ± 0.12 |
| UCAUAGCAAUAUUACGUUAU | -3.05 ± 0.14 | -2.21 ± 0.16 |
| UUAUAGCAAUAUUACGACGC | -2.63 ± 0.45 | – |
| UUAUAGCAAUAUUACGUUUU | -3.61 ± 0.25 | -2.64 ± 0.28 |
| CGCCAGCAAUAUUACGACUC | -3.02 ± 0.22 | -2.21 ± 0.25 |
| CAAAAGCAAUAUUACGCACA | -1.75 ± 0.1 | -0.746 ± 0.11 |
| UAGAAGCAAUAUUACGGCGU | -0.78 ± 0.077 | -0.678 ± 0.11 |
| GAUAAGCAAUAUUACGCAUA | -0.919 ± 0.13 | -0.783 ± 0.18 |
| UUAUAGCAAUAUUACGUUGG | -2.91 ± 0.22 | -1.86 ± 0.21 |
| CAUAAGCAAUAUUACGCCUU | -3.7 ± 0.19 | -1.96 ± 0.17 |
| UCCUAGCAAUAUUACGUACU | -3.41 ± 0.3 | -2 ± 0.26 |
| CCCAAGCAAUAUUACGGUAC | -4.14 ± 0.23 | -2.71 ± 0.17 |
| UUAGAGCAAUAUUACGGAGC | -3.62 ± 0.29 | -2.31 ± 0.22 |
| GACAAGCAAUAUUACGUCGA | -2.53 ± 0.09 | -1.24 ± 0.078 |
| CGAAAGCAAUAUUACGCUUU | -3.54 ± 0.35 | -2.7 ± 0.41 |
| ACCCAGCAAUAUUACGUCUU | -1.25 ± 0.063 | -0.446 ± 0.075 |
| CUGCAGCAAUAUUACGAGAG | -1.64 ± 0.12 | -2.96 ± 0.22 |
| UCGCAGCAAUAUUACGGAAC | -1.51 ± 0.32 | -2.53 ± 0.41 |
| AAGGAGCAAUAUUACGUCGG | -3.13 ± 0.19 | -2.74 ± 0.33 |
| GUAAAGCAAUAUUACGCGAG | -0.869 ± 0.068 | -0.158 ± 0.091 |
| GAGUAGCAAUAUUACGGAUC | -0.928 ± 0.092 | -0.167 ± 0.12 |
| AUAUAGCAAUAUUACGGCCA | -1.28 ± 0.22 | -0.185 ± 0.26 |
| UCAUAGCAAUAUUACGUUGG | -4.13 ± 0.46 | -1.05 ± 0.24 |
| CACCAGCAAUAUUACGGCUU | -1.91 ± 0.087 | -0.758 ± 0.093 |
| CCUCAGCAAUAUUACGACCU | -2.59 ± 0.16 | -2.59 ± 0.29 |
| GCGAAGCAAUAUUACGGUCA | -1.7 ± 0.11 | -1.36 ± 0.1 |

| Sequence | self-splicing fitness (ln) (30 °C) | self-splicing fitness (ln) (37 °C) |
| --- | --- | --- |
| ACCUAGCAAUAUUACGUGUA | -2.84 ± 0.099 | -1.45 ± 0.075 |
| AACGAGCAAUAUUACGGCGU | -1.84 ± 0.098 | -0.572 ± 0.088 |
| GAAAAGCAAUAUUACGACUA | 0.0422 ± 0.14 | 0.403 ± 0.15 |
| AAGCAGCAAUAUUACGAUCU | -0.0506 ± 0.075 | 0.801 ± 0.09 |
| CGUUAGCAAUAUUACGAGUU | -2.98 ± 0.36 | -2.27 ± 0.45 |
| GAACAGCAAUAUUACGGAAG | -3.32 ± 0.14 | -1.73 ± 0.16 |
| AGGCAGCAAUAUUACGACUC | -1.65 ± 0.14 | -1.01 ± 0.19 |
| UAGUAGCAAUAUUACGAAUC | -2.9 ± 0.48 | – |
| ACAAAGCAAUAUUACGGUGU | -3.29 ± 0.14 | -2.81 ± 0.15 |
| AGGCAGCAAUAUUACGACGC | -0.638 ± 0.12 | -0.663 ± 0.14 |
| CAAAAGCAAUAUUACGCUUU | -3.96 ± 0.21 | -2.55 ± 0.17 |
| GGCGAGCAAUAUUACGGCGU | -2.49 ± 0.21 | -1.1 ± 0.2 |
| AGGUAGCAAUAUUACGUGAG | -1.02 ± 0.011 | -0.588 ± 0.032 |
| CAACAGCAAUAUUACGACGG | -0.0366 ± 0.058 | 0.186 ± 0.085 |
| GUCGAGCAAUAUUACGCGGC | -3.88 ± 0.47 | -2.25 ± 0.39 |
| ACCUAGCAAUAUUACGAAGU | -3.53 ± 0.19 | -2.72 ± 0.19 |
| AAAGAGCAAUAUUACGUGUG | -3.84 ± 0.18 | -2.57 ± 0.19 |
| AAGUAGCAAUAUUACGCACA | -0.522 ± 0.088 | -0.00649 ± 0.14 |
| AUAGAGCAAUAUUACGCAUU | -1.19 ± 0.096 | -0.296 ± 0.1 |
| GUUAAGCAAUAUUACGCAAU | -3.09 ± 0.44 | – |
| CUUAAGCAAUAUUACGUACG | -0.58 ± 0.076 | -0.451 ± 0.079 |
| CUGCAGCAAUAUUACGUUCG | -0.733 ± 0.074 | -0.62 ± 0.095 |
| UAAUAGCAAUAUUACGAAGU | – | -1.55 ± 0.47 |
| AAUGAGCAAUAUUACGUACA | -2.3 ± 0.36 | -3.21 ± 0.33 |
| UCCGAGCAAUAUUACGCCGC | – | -2.15 ± 0.49 |
| UGAGAGCAAUAUUACGGCGA | -3.53 ± 0.34 | -0.434 ± 0.23 |

| Sequence | self-splicing fitness (ln) (30 °C) | self-splicing fitness (ln) (37 °C) |
| --- | --- | --- |
| AUCCAGCAAUAUUACGAAAA | -1.79 ± 0.12 | -1.02 ± 0.12 |
| UCGUAGCAAUAUUACGUGCU | -2.98 ± 0.26 | -2.83 ± 0.48 |
| AUCAAGCAAUAUUACGUUCA | -1.91 ± 0.11 | -0.446 ± 0.13 |
| AGCAAGCAAUAUUACGUUUG | -4.51 ± 0.22 | -2.76 ± 0.18 |
| AUGCAGCAAUAUUACGGCUC | -0.408 ± 0.1 | -0.0582 ± 0.13 |
| AUCAAGCAAUAUUACGCUGG | -2.36 ± 0.096 | -0.84 ± 0.12 |
| CUGCAGCAAUAUUACGGUUA | -2.6 ± 0.16 | -1.03 ± 0.12 |
| CACUAGCAAUAUUACGAAGG | -1.65 ± 0.1 | -0.781 ± 0.15 |
| CUCGAGCAAUAUUACGGAAG | -3.56 ± 0.2 | -1.32 ± 0.13 |
| UGAGAGCAAUAUUACGGGCU | -2.32 ± 0.37 | -2.6 ± 0.38 |
| AAACAGCAAUAUUACGCAUA | -2 ± 0.096 | -0.419 ± 0.073 |
| UAACAGCAAUAUUACGCUUG | -0.975 ± 0.06 | -0.577 ± 0.082 |
| AUAAAGCAAUAUUACGACUU | 0.0576 ± 0.088 | 0.686 ± 0.13 |
| AGGCAGCAAUAUUACGGCCA | -1.07 ± 0.15 | -0.0424 ± 0.21 |
| GUGAAGCAAUAUUACGCGCA | -0.00454 ± 0.099 | 0.509 ± 0.13 |
| AACCAGCAAUAUUACGAUGA | -0.753 ± 0.069 | -0.507 ± 0.08 |
| CCUGAGCAAUAUUACGCCGG | – | -1.71 ± 0.39 |
| AAAAAGCAAUAUUACGGCCC | -0.786 ± 0.22 | 0.00498 ± 0.23 |
| CUUAAGCAAUAUUACGCGAU | -1.91 ± 0.19 | -0.837 ± 0.18 |
| UUCCAGCAAUAUUACGGCUC | -2.48 ± 0.21 | -0.924 ± 0.21 |
| UGGAAGCAAUAUUACGCUUA | -1.39 ± 0.13 | 0.125 ± 0.15 |
| CGGGAGCAAUAUUACGUAUA | -3.33 ± 0.33 | -2.4 ± 0.25 |
| AUAUAGCAAUAUUACGAACA | -0.789 ± 0.2 | -0.183 ± 0.21 |
| UCUUAGCAAUAUUACGGUAA | -2.62 ± 0.23 | -1.7 ± 0.32 |
| AUAAAGCAAUAUUACGUAGA | -2.36 ± 0.11 | -0.832 ± 0.12 |
| CGAUAGCAAUAUUACGGCGU | -0.866 ± 0.085 | 0.51 ± 0.12 |
